These are literature values, as cited in PMC9837045.

Data set [1] concerns the target BMP9 (Homo sapiens) (UniProt Q9UK05).
For data set [2] the target is unchanged. The experiment in a line: SPR. A general note: Surface plasmon resonance follows binding to a sensor surface in real time, without labels.
Data set [3] has the same target. The source holds these as a separate data set.
For data set [4], the target named is Activin A (Homo sapiens) (UniProt P08476). The experiment in a line: SPR.
Data set [5] has as its target BMP9 (Homo sapiens) (UniProt Q9UK05). This is another data set of the same source.

Values joined by “and” are separate entries in the source; they are usually repeats but may differ in a detail not shown here. Equal entries are not always repeated. Where two headings read alike, the source gives them in different places.

Sequence of UniProt Q9UK05 (Q9UK05 320-429): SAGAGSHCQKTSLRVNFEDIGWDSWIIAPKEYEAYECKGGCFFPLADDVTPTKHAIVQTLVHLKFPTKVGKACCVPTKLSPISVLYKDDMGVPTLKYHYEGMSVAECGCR
Sequence of UniProt P08476 (P08476 311-426): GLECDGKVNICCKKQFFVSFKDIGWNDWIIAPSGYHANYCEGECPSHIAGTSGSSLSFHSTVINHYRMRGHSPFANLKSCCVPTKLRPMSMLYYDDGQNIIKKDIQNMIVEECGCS

By Kd is commonly meant a measure of binding affinity in units of concentration. For the substance ALK2-Fc ECD (from UniProt Q04771), the equilibrium dissociation constant (Kd) in data set [1] was 83 nM.
Turning to ALK1-Fc ECD (from UniProt P37023), the Kd was 0.0313 nM in data set [2]; 0.0481 nM and 0.0455 nM in data set [3].
As to “ACVR2B-Fc (single ECD) ECD (from UniProt Q13705)”, the Kd in data set [4] is 0.108 nM.
Consider ACVR2A ECD (from UniProt P27037), for which the dissociation constant Kd in data set [4] is 5.7 nM.
Regarding ALK1-ECD ECD (from UniProt P37023), in data set [5], the Kd was 0.0716 nM.
Take (ACVR2B)2-Fc ECD (from UniProt Q13705): in data set [4], the Kd was 0.0125 nM.
ACVR2B ECD (from UniProt Q13705): the Kd in data set [4] is 1.1 nM.
For BMPR2 ECD (from UniProt Q13873), the dissociation constant Kd in data set [4] was 59 nM.
With ACVR2B-Fc ECD (from UniProt Q13705), the Kd is 0.0092 nM in data set [4]; 0.033 nM and 0.116 nM in data set [2].
Consider ACVR2A-Fc ECD (from UniProt P27037), for which, in data set [4], the Kd is 0.13 nM.
On to BMPR2-Fc ECD (from UniProt Q13873), for which, in data set [4], the Kd is 14 nM.
